Assay results as given in publication PMC3210417 (Nature structural & molecular biology, 2011).

T1: Epl1 (residues 51–380, EPcA domain) of Piccolo v07 (S. cerevisiae, UniProt P43572 51-380)
T1 sequence: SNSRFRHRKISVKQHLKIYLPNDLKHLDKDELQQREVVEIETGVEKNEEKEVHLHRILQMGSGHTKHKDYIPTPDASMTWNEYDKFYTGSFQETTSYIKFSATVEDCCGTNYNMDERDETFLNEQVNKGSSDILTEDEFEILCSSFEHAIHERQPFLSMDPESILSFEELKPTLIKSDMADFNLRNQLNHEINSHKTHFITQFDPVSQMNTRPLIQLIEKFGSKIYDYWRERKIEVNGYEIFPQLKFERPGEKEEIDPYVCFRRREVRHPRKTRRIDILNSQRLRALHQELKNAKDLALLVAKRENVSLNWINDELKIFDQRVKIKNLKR


Key:
[1] = biological target: recombinant nucleosome core particle formed from full-length Xenopus recombinant histones and mouse (Xenopus); experiment: negative-stain EM of single particles
[2] = biological target: T1, Epl1 (residues 51–380, EPcA domain) of …; experiment: AUC

Molecule | percent of NuA4 particles bound to NCP [1] | stoichiometry N [1] | stoichiometry N [2]
NuA4 histone acetyltransferase complex (from UniProt P43572;Q08649;P38806;Q06337;P38811;Q12432;P39995;P53911;P53201;P53930;P60010;P80428;P47128) | 5% | 1 | 
Esa1 (residues 2–445), 6 × His-tagged, of Piccolo v07 (enzyme) SHDGKEEPGIAKKINSVDDIIIKCQCWVQKNDEERLAEILSINTRKAPPKFYVHYVNYNKRLDEWITTDRINLDKEVLYPKLKATDEDNKKQKKKKATNTSETPQDSLQDGVDGFSRENTDVMDLDNLNVQGIKDENISHEDEIKKLRTSGSMTQNPHEVARVRNLNRIIMGKYEIEPWYFSPYPIELTDEDFIYIDDFTLQYFGSKKQYERYRKKCTLRHPPGNEIYRDDYVSFFEIDGRKQRTWCRNLCLLSKLFLDHKTLYYDVDPFLFYCMTRRDELGHHLVGYFSKEKESADGYNVACILTLPQYQRMGYGKLLIEFSYELSKKENKVGSPEKPLSDLGLLSYRAYWSDTLITLLVEHQKEITIDEISSMTSMTTTDILHTAKTLNILRYYKGQHIIFLNEDILDRYNRLKAKKRRTIDPNRLIWKPPVFTASQLRFAW |  |  | 1
Yng2 (residues 2–218, without PHD domain) of Piccolo v07 (domain or fragment) DPSLVLEQTIQDVSNLPSEFRYLLEEIGSNDLKLIEEKKKYEQKESQIHKFIRQQGSIPKHPQEDGLDKEIKESLLKCQSLQREKCVLANTALFLIARHLNKLEKNIALLEEDGVLAPVEEDGDMDSAAEASRESSVVSNSSVKKRRAASSSGSVPPTLKKKKTSRTSKLQNEIDVSSREKSVTPVSPSIEKKIARTKEFKNSRNGKGQNGSPENEE |  |  | 1
